Source: PMC10350915, “Development of a New Class of CXCR4-Targeting Radioligands Based on the Endogenous Antagonist EPI-X4 for Oncological Applications” (Journal of Medicinal Chemistry, 2023)
Values belong to the molecule of their own block, whether it stands above or below them. Square brackets hold non-standard residues; d marks the D form. Peptide text beside a SMILES is read from it. * marks the point of attachment. DOTA = O=C(O)CN1CCN(CC(=O)O)CCN(CC(=O)*)CCN(CC(=O)O)CC1; Palmitoyl = CCCCCCCCCCCCCCCC(=O)*

Experiments:
CXCR4 [1] = biological target: T1, CXCR4 (Homo sapiens, UniProt P61073); assay: Antibody-competition assay (anti-CXCR4 clone 12G5) on Ghost-CXCR4 cells; assay type: binding; conditions: competition with CXCR4 antibody clone 12G5, Ghost-CXCR4 cells, 4 °C, 2 h; mean ± SEM
T1 construct: Jurkat cells, which are naturally expressing high levels of CXCR4; host or cells: Jurkat, clone E6-1
Description: (§1) Binding of the DOTA-conjugated EPI-X4 derivatives to CXCR4 was assessed by an antibody-competition assay[26] using Ghost cells stably transfected with CXCR4, as well as on Jurkat cells, which are naturally expressing high levels of CXCR4. […] The buffer was removed and plates were precooled at 4 °C. Ligands were serially diluted in PBS. The antibody (clone 12G5, Allophycocyanin labeled, BD Pharmingen #555976) was diluted in PBS containing 1% FBS. The antibody was used at a fixed concentration close to its KD. 15 μL of compound and immediately afterward 15 μL of the antibody were added to the cells. Plates were incubated at 4 °C in the dark for 2 h allowing to establish an equilibrium binding. Cells were then washed twice with PBS containing 1% FBS and fixed with 2% paraformaldehyde. Antibody binding was analyzed by flow cytometry (FACS CytoFLEX; Beckman Coulter).

CXCR4 [2] = biological target: T1, CXCR4; assay: Antibody-competition assay (anti-CXCR4 clone 12G5) on Jurkat cells; assay type: binding; conditions: competition with CXCR4 antibody clone 12G5, Jurkat cells, 4 °C, 2 h; mean ± SEM
Description: as §1

Jurkat xenografts [3] = assay type: in vivo, mouse; conditions: 1 h p.i., SPECT/CT or PET/CT
Description: The ability of the ^177Lu ligands to target CXCR4 in vivo was assessed by SPECT/CT imaging in Jurkat xenografts. […] 1 h after injection, the remaining amount of radioligand in the body (and vice versa, the washout) was quantified by measuring the total body activity (mouse) in a dose calibrator. The % of the radioligand remaining in the body after 1 h is reported in Figure 6A as % of the remaining activity in reference to the injected activity (100%).
Figure 6 SPECT/CT images as maximum intensity projections (MIPs) of Jurkat tumor-bearing mice at 1 h p.i. of ^177Lu-labeled ligands (200 pmol, ∼15 MBq). […] (B) Same SPECT/CT images of ^177Lu-1, ^177Lu-2, ^177Lu-5, and ^177Lu-6, adapted in a lower scale. T: tumor, L: liver, and K: kidneys. […] TEXT PRINTED IN THE PICTURE: (A) ^177Lu-1: Remaining Activity (% injected): 6 % | (A) ^177Lu-2: Remaining Activity (% injected): 7 % | (A) ^177Lu-5: Remaining Activity (% injected): 7 % | (A) ^177Lu-6: Remaining Activity (% injected): 8 % | (A) ^177Lu-7: Remaining Activity (% injected): 55 % | (A) ^177Lu-9: Remaining Activity (% injected): 94 %
(§2) The experimental protocol involving animals was approved by the Veterinary Office (Department of Health) of the Cantonal Basel-Stadt (Approval No. 30515) in accordance with the Swiss regulations for animal treatment. Female athymic nude-Foxn1^nu/Foxn1^+ mice (Envigo, The Netherlands), 4–6 weeks old, were injected subcutaneously with 10^7 Jurkat cells in a 200 μL (1:1) mixture of PBS and Matrigel (CorningMatrigelMembrane matrix, Fischer Scientific, Germany) on the right shoulder. The tumors were allowed to grow for 3–4 weeks before commencement of the experiments.
Nude mice bearing Jurkat xenografts were intravenously injected via the tail vein with ∼15 MBq (200 pmol) of the ^177Lu ligands and 8 MBq (200 pmol) of ^68Ga-7 were euthanized 1 h post injection (p.i.). The radioactivity in the syringe before and after injection was measured followed by measuring the amount of radioactivity remaining in the sacrificed mice. […]

Jurkat xenografts [4] = assay: in vivo; conditions: female, athymic nude-Foxn1^nu/Foxn1^+, mouse, iv, 200 pmol, 1 h
Description: Quantification of the total body distribution of ^177Lu-7 and ^68Ga-7 was performed in Jurkat xenografted mice after intravenous injection of 100 μL, 200 pmol, with […], respectively (n = 5). The mice were sacrificed at 1 h p.i. ^177Lu-7 and ^68Ga-7 accumulated mainly in the kidneys (83.1 ± 25.5 and 75.6 ± 30.3%IA/g, respectively, p = 0.59), liver (5.19 ± 1.08 and 4.08 ± 1.05%IA/g, respectively, p = 0.07) and tumor (2.25 ± 0.43 and 2.24 ± 0.57%IA/g, respectively, p = 0.97), as already seen in the SPECT/CT and PET/CT images (Figures 6 and 7). Uptake in the tumor was lower than for the kidneys and liver but higher as in all other tissues investigated. […] The uptake seen in the liver might be attributed, at least partially, to the fact that CXCR4 is constitutively expressed in the sinusoidal endothelial cells of the murine liver[38] or could be related to another yet-unknown mechanism previously reported for other CXCR4-targeting probes.[11],[39] Regretfully, there are no direct measurements available for the affinity of ^177Lu-7 with the murine CXCR4 (mCXCR4). This is relevant for assessing its total body distribution. However, we have shown that EPI-X4 and EPI-X4 derivatives are active in mouse models of inflammatory diseases[22],[25] and cancer.[40] More specifically, EPI-X4 derivatives such as JM#21 reduced immune cell influx in lungs of mice suffering from allergic asthma or reduced skin inflammation in a murine model of atopic dermatitis upon topical administration. […] Thus, we speculate that the DOTA conjugate of JM#173 (ligand-7) also cross-reacts to the mCXCR4. […] Last, but not the least, the uptake in the kidneys was predominant, and given the highly hydrophilic character of ^177Lu-7, is attributed, at least partially, to its excretion via this path.
as §2
Quantitative biodistribution studies of ^177Lu-7 (100 μL, 200 pmol, 0.8–1 MBq) and ^68Ga-7 (100 μL, 200 pmol, 2–3 MBq) were performed after intravenous injection of the radioligand via the tail vein on Jurkat xenografts. […] 1 h after injection of the radioligand, mice were sacrificed, organs of interest and blood were collected, rinsed of excess blood, blotted dry, weighed, and counted in a γ-counter. The samples were counted against a suitable diluted aliquot of the injected solution as the standard and the results are expressed as percentage injected activity per gram of tissue (%IA/g). Statistical analysis between selected organs was performed by Welch’s t-test and p values <0.05 were considered statistically significant.

T1 sequence (P61073 whole entry): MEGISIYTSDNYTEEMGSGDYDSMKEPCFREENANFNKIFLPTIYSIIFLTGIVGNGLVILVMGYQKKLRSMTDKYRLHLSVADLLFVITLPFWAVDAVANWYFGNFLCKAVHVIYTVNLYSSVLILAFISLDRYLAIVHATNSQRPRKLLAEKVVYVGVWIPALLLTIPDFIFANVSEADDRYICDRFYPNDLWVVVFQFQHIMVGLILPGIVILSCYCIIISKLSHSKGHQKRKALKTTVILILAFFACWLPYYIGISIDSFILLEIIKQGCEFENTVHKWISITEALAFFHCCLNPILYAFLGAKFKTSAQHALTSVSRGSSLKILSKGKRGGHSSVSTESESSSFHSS

SMILES: CCCCCCCCCCCCCCCC(=O)NCCCC[C@H](NC(=O)[C@H](CCCCN)NC(=O)[C@H](CO)NC(=O)[C@H](Cc1c[nH]c2ccccc12)NC(=O)[C@H](CCCNC(=N)N)NC(=O)[C@@H](NC(=O)[C@@H](N)[C@@H](C)CC)C(C)C)C(=O)N[C@H](C(=O)N1CCC[C@H]1C(=O)N[C@@H](CS)C(=O)N[C@H](C(=O)N[C@@H](CO)C(=O)N[C@@H](CCCCNC(=O)CN1CCN(CC(=O)O)CCN(CC(=O)O)CCN(CC(=O)O)CC1)C(=O)O)C(C)C)C(C)C [ligand-8, I^1VRWSKK^7(Pal)VPCS^12K(DOTA)] (H-IVRWSKK(Palmitoyl)VPCVSK(DOTA)-OH; N-terminus and C-terminus assumed)
- IC50 (CXCR4 [1]): 15 ± 5 nM
- IC50 (CXCR4 [2]): 4 ± 2 nM

SMILES: CC[C@@H](C)[C@@H](N)C(=O)N[C@@H](CC(C)C)C(=O)N[C@@H](CCCNC(=N)N)C(=O)N[C@@H](Cc1c[nH]c2ccccc12)C(=O)N[C@@H](CO)C(=O)N[C@@H](CCCNC(=N)N)C(=O)N[C@@H](CCCCN)C(=O)N[C@@H](CCCCNC(=O)CN1CCN(CC(=O)O)CCN(CC(=O)O)CCN(CC(=O)O)CC1)C(N)=O [^68Ga-7, metal not drawn] (H-[dI]LRWSRKK(DOTA)-NH2; N-terminus assumed)
- visualization of CXCR4-expressing tumor xenograft by imaging (Jurkat xenografts [3]): visualized the CXCR4-expressing tumor xenograft
- uptake in adrenal (Jurkat xenografts [4]): 2.69 ± 0.94 % IA/g
- uptake in femur (Jurkat xenografts [4]): 1.29 ± 0.43 % IA/g
- uptake in heart (Jurkat xenografts [4]): 0.25 ± 0.09 % IA/g
- uptake in intestine (Jurkat xenografts [4]): 0.59 ± 0.18 % IA/g
- uptake in lung (Jurkat xenografts [4]): 1.78 ± 0.81 % IA/g
- uptake in muscle (Jurkat xenografts [4]): 0.44 ± 0.26 % IA/g
- uptake in pancreas (Jurkat xenografts [4]): 0.20 ± 0.11 % IA/g
- uptake in spleen (Jurkat xenografts [4]): 0.85 ± 0.29 % IA/g
- uptake in stomach (Jurkat xenografts [4]): 0.41 ± 0.16 % IA/g

SMILES: CC[C@H](C)[C@H](N)C(=O)N[C@@H](CC(C)C)C(=O)N[C@@H](CCCNC(=N)N)C(=O)N[C@@H](Cc1c[nH]c2ccccc12)C(=O)N[C@@H](CO)C(=O)N[C@@H](CCCNC(=N)N)C(=O)N[C@@H](CCCCN)C(=O)N[C@@H](CC(C)C)C(=O)N1CCC[C@H]1C(=O)N[C@@H](CO)C(=O)N[C@H](C(=O)N[C@@H](CO)C(=O)N[C@@H](CCCCNC(=O)CN1CCN(CC(=O)O)CCN(CC(=O)O)CCN(CC(=O)O)CC1)C(=O)O)C(C)C [^natLu-2, metal not drawn] (H-ILRWSRKLPSVSK(DOTA)-OH; N-terminus and C-terminus assumed)
- IC50 (CXCR4 [1]): 122 ± 45 nM

Second part, the molecule after the results:

- IC50 (CXCR4 [1]): 763 ± 135 nM
- IC50 (CXCR4 [2]): 662 ± 160 nM
SMILES: CC(C)C[C@@H](N)C(=O)N[C@@H](CC(C)C)C(=O)N[C@@H](CCCNC(=N)N)C(=O)N[C@@H](Cc1c[nH]c2ccccc12)C(=O)N[C@@H](CO)C(=O)N[C@@H](CCCNC(=N)N)C(=O)N[C@@H](CCCCN)C(=O)N[C@@H](CC(C)C)C(=O)N1CCC[C@H]1C(=O)N[C@@H](CSSC[C@H](NC(=O)[C@@H]1CCCN1C(=O)[C@H](CC(C)C)NC(=O)[C@H](CCCCN)NC(=O)[C@H](CCCNC(=N)N)NC(=O)[C@H](CO)NC(=O)[C@H](Cc1c[nH]c2ccccc12)NC(=O)[C@H](CCCNC(=N)N)NC(=O)[C@H](CC(C)C)NC(=O)[C@H](N)CC(C)C)C(=O)N[C@H](C(=O)N[C@@H](CO)C(=O)N[C@@H](CCCCNC(=O)CN1CCN(CC(=O)O)CCN(CC(=O)O)CCN(CC(=O)O)CC1)C(=O)O)C(C)C)C(=O)N[C@H](C(=O)N[C@@H](CO)C(=O)N[C@@H](CCCCNC(=O)CN1CCN(CC(=O)O)CCN(CC(=O)O)CCN(CC(=O)O)CC1)C(=O)O)C(C)C [^natLu-6 dimer, metal not drawn]

- IC50 (CXCR4 [1]): 225 ± 111 nM
- IC50 (CXCR4 [2]): 122 ± 63 nM
SMILES: CC[C@H](C)[C@H](N)C(=O)N[C@@H](CC(C)C)C(=O)N[C@@H](CCCNC(=N)N)C(=O)N[C@@H](Cc1c[nH]c2ccccc12)C(=O)N[C@@H](CO)C(=O)N[C@@H](CCCNC(=N)N)C(=O)N[C@@H](CCCCN)C(=O)N[C@@H](CC(C)C)C(=O)N1CCC[C@H]1C(=O)N[C@@H](CSSC[C@H](NC(=O)[C@@H]1CCCN1C(=O)[C@H](CC(C)C)NC(=O)[C@H](CCCCN)NC(=O)[C@H](CCCNC(=N)N)NC(=O)[C@H](CO)NC(=O)[C@H](Cc1c[nH]c2ccccc12)NC(=O)[C@H](CCCNC(=N)N)NC(=O)[C@H](CC(C)C)NC(=O)[C@@H](N)[C@@H](C)CC)C(=O)N[C@H](C(=O)N[C@@H](CO)C(=O)N[C@@H](CCCCNC(=O)CN1CCN(CC(=O)O)CCN(CC(=O)O)CCN(CC(=O)O)CC1)C(=O)O)C(C)C)C(=O)N[C@H](C(=O)N[C@@H](CO)C(=O)N[C@@H](CCCCNC(=O)CN1CCN(CC(=O)O)CCN(CC(=O)O)CCN(CC(=O)O)CC1)C(=O)O)C(C)C [^natLu-1 dimer, metal not drawn]
